Assay results: US5919666

Tests used:
[1] = biological target: RNA polymerase II holoenzyme (yeast)
[2] = biological target: mammalian RNA polymerase II holoenzyme (calf thymus)
[3] = biological target: RNA polymerase II (calf thymus) (bovine (calf thymus)); experiment: cofractionation during purification from calf thymus, Western blot

Row | percent of the RNA polymerase II associated with SRB7 [3] | Substance | in vitro transcription from a template with a GAL4 site, reconstituted with holoenzyme, factor a and TBP [1] | in vitro transcription from the adenovirus major late promoter with 3 Gal4 binding sites, with coactivators HMG-2 or PC4 [2]
1 |  | GAL4-VP16 (from UniProt P04386) | 5 fold | 5 fold
2 | > 20% | bovine SRB7 (from UniProt Q2TBU8) |  | 
